Laboratory results as given in patent publication US20240018269A1.

Assays:
[1] = target: human FcγRIIb expressed on the cell surface (human) (UniProt P31994); assay: cell-based or functional assay
[2] = target: recombinant soluble FcγRIIa-Arg131 (human) (UniProt P12318); assay: BLI (Octet); anti-TNP IgG captured on TNP-BSA-biotin, rsFcγR in solution; global 1:1 Langmuir fit
[3] = target: recombinant soluble FcγRIIb (human) (UniProt P31994); assay: as above
recombinant soluble FcγRIIb (human), sequence (P31994 43-217): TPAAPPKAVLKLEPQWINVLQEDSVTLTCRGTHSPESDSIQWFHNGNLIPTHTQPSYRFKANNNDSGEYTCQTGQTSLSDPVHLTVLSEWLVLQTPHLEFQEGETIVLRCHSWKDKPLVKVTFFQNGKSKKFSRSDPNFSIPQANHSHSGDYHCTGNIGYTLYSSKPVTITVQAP

human FcγRIIb expressed on the cell surface (human), sequence (P31994 43-310): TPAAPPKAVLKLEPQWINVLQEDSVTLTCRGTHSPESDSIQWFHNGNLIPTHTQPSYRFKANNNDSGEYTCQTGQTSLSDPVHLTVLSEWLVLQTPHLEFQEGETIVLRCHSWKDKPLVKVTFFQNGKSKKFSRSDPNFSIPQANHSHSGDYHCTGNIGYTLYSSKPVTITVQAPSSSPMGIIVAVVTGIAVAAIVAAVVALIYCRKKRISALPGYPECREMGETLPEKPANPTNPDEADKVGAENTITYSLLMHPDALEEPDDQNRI
recombinant soluble FcγRIIa-Arg131 (human), sequence (P12318 34-217 H167R): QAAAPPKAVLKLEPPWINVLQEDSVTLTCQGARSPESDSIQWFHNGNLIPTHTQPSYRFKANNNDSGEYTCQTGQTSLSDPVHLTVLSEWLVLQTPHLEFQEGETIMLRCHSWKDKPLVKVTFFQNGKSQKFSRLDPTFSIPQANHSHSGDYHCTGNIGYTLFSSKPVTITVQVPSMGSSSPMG

Row | Substance | % inhibition of basophil activation (washed blood BAT) [1] [%] | % inhibition of basophil activation (whole blood BAT) [1] [%] | Ka [2] [M⁻¹] | Ka [3] [M⁻¹]
1 | chimeric anti-TNP human IgG4-FEGG (antibody) | 42 | 8 |  | 
2 | chimeric anti-TNP human IgG1-SELF (antibody) |  |  | 3.49e+08 | 7.4e+07
3 | chimeric anti-TNP human IgG4-LLGG (antibody) |  | 13 |  | 
4 | chimeric anti-TNP human IgG2-FEGG (antibody) |  |  |  | 400000
